assay: soluble on expression in E. coli; label from the status in PepcDB or PDB records

Sequence	soluble on expression in E. coli
MVKGRIHSVESCGTVDGPGIRYVIFTQGCLLRCQYCHNADTWEIGKGKEITVEEVMQDVTCYLPFIEASGGGITVSGGEPLLQLDFLIELFKKCKAAGIHTTIDSSGGCYSEEPEFRNKLDILMDYTDLVLLDLKHIDSKKHRKLTGKPNEHILQFARYLSDKNKPIWVRHVLVPGVTDNEEDLQKLSSFIQSLSNVQKVEVLPYHKLGVYKWEALGHKYPLANVEPPTEKNVEHAKYILQAV	not soluble
MSLKDKFGREIRSLRISITNKCNLQCFYCHREGHDSNNDRYMTPEEIGIIAKTSTKFGVKKIKISGGEPLLRKDVCEIIENIKDERIKDISLTTNGILLENLAEKLKDAGLNRVNVSLDTLNPELYKKITKFGDVERVINGIKKAIDVSLTPLKVNFLAMSINIKDLPDIMEFCRDIGAILQIIEFIPLKEELKGYYYNISPIENEIKEKADKVITRNFMQNRKKYIVDGLEIEFVRPMDNSEFCMHCTRIRLTYDGYLKPCLLRDDNLVDVLTPLRKGENLEPYFIECINRREPYFKIKEGHHHHHH	soluble
MGATGSSQLEKEISTTESVNNANEHYYGLVNALFFCRPFREKVLNYKQTLKKSGASKDNLVTCLADLFHSIASQKRRVGTIAPKRFITKLKKENELFDNYMQQDAHEFFNYLINTISETLIQEKIAEREKASRHGTLKKGNVTVNLAPATAGLPRSDEKGTSERNGGITVEGNEFLNKSDTTTWIHEIFQGILTNETRCLSCETVSSKDEDFLDLSIDVEQNTSISHCLRVFSETETLCGDQKYFCETCSSKQEAQKRMRIKKPPQLLALHLKRFKFVEPLNRHTKLSYRVVFPLELRLFNVSDDAEYGDRMYDLVATVVHCGATPNRGHYITLVKSNSFWLVFDDDIVEKLEVSSMEEFSGMSTDANIQMPPGNQSAPQKEFRICLYSVLSGKRLRC	not soluble
MGSDKIHHHHHHVACKPKEKPSSATSLTDDALMDTVQRRTFNYFWDAAEPNSGLARERYHMDGEYPAGGPEIVTSGGSGFGIMAILAGIDRGYVSREEGLRRMEKIVGFLEKADRFKGAYPHWWNGETGHVQPFGQKDNGGDLVETAFLMQGLLAVHQYYAEGSAEEKKLAGRIDKLWREVDWNWYRHGGQNVLYWHWSPEYGWEMNFPVHGYNECLIMYILAAASPTHGVPAAVYHEGWAQNGAIVSPHKVEGIELHLRYQGGEAGPLFWAQYSFLGLDPVGLKDEYCPSYFNEMRNLTLVNREYCIRNPKHYKGYGPDCWGLTASYSVDGYAAHGPLERDDRGVISPTAALSSIVYTPDQSLQVMHHLYEMGDKVFGPYGFYDAFSETADWYPKRYLAIDQGPIAVMIENYRTGLLWKLFMSHPDVQNGLKKLGFNVKK	not soluble
MAHHHHHHMAKRKYMSKVDGKINVGEKHQAKIPDLVTDENEKTNVEETQPVENVNNVNDDVRKNKKAKTEQVEETTNNAAEEQVQQEEPVETAPAHEEPAHGEEAQGEEVQGEEAQGEEVQGEEVQGEEAHEEPANDEPANDEPANDEPANEEPANEEPANEEPANEEPANEEPANEEPANEEPANE	not soluble
SAEKFDHLEEHLEKFVENIRQLGIIVSDFQPSSQAGLNQKLNFIVTGLQDIDKCRQQLHDITVPLEVFEYIDQGRNPQLYTKECLERALAKNEQVKGKIDTMKKFKSLLIQELSKVFPEDMAKYRSIRGEDHPPS	soluble
MGSDKIHHHHHHMTLDLKQEKGREIFFRLAEKADVIIENFVPGVVKKLGVDYEAVKKVKPDIIYCHVSGFGQDGPYRDRPAFDQLIQGEAGIISYTGTRETPCKINVPITDLLASMYGAYAVLAALLRREKTGEGMEIDISLFDCAVTMMLNLMNMAIVEGMKDEELRMGTKYFLATPYEPYPAGDGKLVNVVVATEWHWKEFCKAVGLEELLDDPRFATNQQRLKHREQLERIIIEKFREKPRDDWIEILLKAGVPCGAVNTIQEVIEHPQTKHRKTVVEVDYPELGKIKLFNNPVKFSGFEVEVRRPPKLGEHTEEILKSIGLSEEEIADLRA	not soluble
MSHYGGNPRGNSSHQFGRKDFQQSDSKHIPKITGQPLPNEVQIPFDNMIYETRNPPKFEKQAKFISEYCINYDRKLQLGRMRAKKFHDKLPPNNLSLDLGKGFETFDPKEGDEKIIMLLEWINQMAPEGGRLKKVIHEADVVCWRGLITKICSTIYNKEEGWRIDAIKRKGVIFLCEEKTEQAKNRDLNQTDLDKRMSYWGHKFEQYVTLDDDAEQPDTSSPVTTKEEYAVVFRNDLQTDQRLNPEKRSIGIFYSGEVDCLDRHGNMLELKTQKGELGHGFYKYSKSFKWWLQSSLVNVDHIIVGLRTQEGHVKSLTSLRTREIPQRASWNFRAGFEFLSTIFTYILNCLEKDGDACVIEYRSEMGIHKGIQMRRVPVDEFDFVPNEFLEKFC	not soluble
MSLLSIIPISAGIPLTETEPKQKWLEEWSKQLFVKVSIDSEYGWGEVLPAAFNSPALYADIVKRLEPSLNGMEISEPGIIWEKLRKLTFSGGYGPVIGAISGVDIALWDLKAKLSKLYLGDIFGKNEQKIARYASLSRYANYEAVIRASKNIVESGFKAIKLHQTKDDTLESVKRFREEIGYGVDLMVDLNCAMNIDEAIKFANSVQRYELKWVEEPIWPPDDLASLKKINDIVPVAAGENFFDFFKFEDAVHLEALTYYQPDVTKVGGLTPTLKILDLLKKNHEQVAFHNRPHNGWIGIFASIAAARMNGVDALIETPPNGVPSQYFRYNAMITSEVIAPNGVGLSIEPIEPLPQPKDEKILIFHDEGHHHHHH	not soluble
MSGAVPETPYHQRWLAFPDAVSSYRPLESRLAGTSRATADNRTPCTGRLGTPRVFLMATDDVSKAYSSPTFDAEALLGTVISAEDPDRVLIEPWATGVDGVILDVGSGTGRWTGHLASLGHQIEGLEPATRLVELARQTHPSVTFHHGTITDLSDSPKRWAGLLAWYSLIHMGPGELPDALVALRMAVEDGGGLLMSFFSGPSLEPMYHPVATAYRWPLPELAQALETAGFQVTSSHWDPRFPHAYLTAEASKQNLALEHHHHHH	not soluble
MSLMVIRPVERSDVSALMQLASKTGGGLTSLPANEATLSARIERAIKTWQGELPKSEQGYVFVLEDSETGTVAGICAIEVAVGLNDPWYNYRVGTLVHASKELNVYNALPTLFLSNDHTGSSELCTLFLDPDWRKEGNGYLLSKSRFMFMAAFRDKFNDKVVAEMRGVIDEHGYSPFWQSLGKRFFSMDFSRADFLCGTGQKAFIAELMPKHPIYTHFLSQEAQDVIGQVHPQTAPARAVLEKEGFRYRNYIDIFDGGPTLECDIDRVRAIRKSRLVEVAEGQPAQGDFPACLVANENYHHFRVVLVRTDPATERLILTAAQLDALKCHAGDRVRLVRLCAEEKTAEGHHHHHH	soluble
MDQNIPCQFFSFENTALAVRHRKGHCFPGLVWLSGYQSDMLGSKAMLVDNFAQKNDLSCLRFDYSGHGESEGDFFQGTISRWVKESLAIFETYCEGPQILIGSSMGGWIALKLAMMLAQKNKRLAGMVLVAPAPDFTQTLVEPKLGLEEWKILEEKGYIERPAVGDEEPMPFTKGLIEDGRDNCVMKGCLDIGCPIHILQGMEDDKIPYQHTLTLMNHLPLHDVTLTLVRDADHRFSRPQDLECLETVLSILIDRINAG	not soluble
MSLENLKNIQPREDFNWEEFEAGGVHAAVSRQEQEAAYDKTLNTIKEKEVVMGRVTAINKREVVINVGYKSEGVVPATEFRYNPELKVGDEVEVYIENQEDKKGQLVLSHRKARAARSWERVNEALEKDEIVKGYVKCRTKGGMIVDVFGIEAFLPGSQIDVRPIRDYDAFVEKTMEFKIVKINQEYKNVVVSHKVLIEAELEQQKKEIIGKLEKGQVLEGIVKNITSYGVFIDLGGVDGLIHITDLSWGRVAHPEEIVQLDQKINVVILDFDEDRKRIALGLKQLMPHPWDALDSELKVGDKVKGKVVVMADYGAFVEIAQGVEGLIHVSEMSWTQHLRSAQDFLHVGDEVEAVILTLDREERKMSLGLKQLKPDPWADIETRFPVGSRHHARVRNFTNFGVFVEIEEGVDGLIHISDLSWTKKIKHPSEFTEVGADIEVQVIEIDKENRRLSLGHKQLEENPWDVFETVFTVGSIHEGTVIEVMDKGAVVSLPYGVEGFATPKHMVKEDGSQAVLEEKLPFKVIEFNKDAKRIIVSHSRVFEDEQKMAQREANAERKAEAKAAQKEAAAEAANPAQAVEKATLGDLGELAALKEKLSENEGHHHHHH	soluble
MLQSTLLRKSIFYSLAHRRHVASVPLKDVFCDPENPKILQFGDISMAHHRIQNGIVRTDCRKSRCLSKLFDMNIYLKMEVNQDTGSFKERGARYALQNLPEEKKKAGVYAASAGNHALALSLHGKQLGVEVNVVMPKIAPLMKINRCQDLGANILVQGEDIAESREIALRMAHDSNGTYINGYDHYDILAGAGTTGIEILEQIQMPDAILVPVGGGGLVAGVATAVKALSPTTEVIGVVSETCQAIVKSLQAGHPVYTPTRPTLADGLAVPNAGVNAFASMIGKVDRVISVPENDIAVAILRLIENEKVVCEGAGAIGIGAILSGKLNHLKGKTVVSILSGGNIDSTSLGRCIERGLAYDHRVIRLSVIIPDKPGGLSKLTGLVGELSGNVRDLYLERAFMRNDMSSQRVKMVIEVRGEEHEMQLKQKFQEVYDPSNCQFKNNRLPRL	not soluble
MYGVLVIGAPGAGKSTFCAGLTDIFSQTKRPFLTINLDPANDTMAYAPDVNITEMITVNDVMDRLGLGPNGALKYCIETLGANCNWLLQKIEANHKKYLIIDCPGQLELYKSEGELWKVIRFLEKSGVRLCALHLADSLYCSDPSKFISVALSTLATMVTMEMPQVNCLSKADLFSEDGTYDLEFFSHLPDVNRLLDLLNEVPGLEKYRKLNEAICGVISDFDLVSFVPLAVENKESMMKVIQMVDAANGFSLTEQGDIRELILNSKA	not soluble
MSLTPTVMVVDESRITFLAVKNALEKDGFNVIWAKNEQEAFTFLRREKIDLVFVDVFEGEESLNLIRRIREEFPDTKVAVLSAYVDKDLIINSVKAGAVDYILKPFRLDYLLERVKKIISSTPRVTVSLRKNIEDLEITLKFEDIVRKEIKRSNRTGSRFCVMYVKFEDIMRDYETIKKFFRETDYVLPISASEYLFVLTLTGKHGIEAVTRRMKEKLSERFSYTYVCYPDDGKTYEEIILTLKDRMAKPRGEGHHHHHH	soluble
MVGNMNREALFKTLTTGYLHFWSLSRKKLWLKGETSGNFQIIEEFKVDCDADAVLFKVTSLGPICHTGNYTCFYRSYDELVNSKS	soluble
MGSDKIHHHHHHMLERTTRHVRPSLDGQAFYERCTQILSELDDAESSLRNVIAQPRGLLRVDLSGAHATKIVLPNIDQFHELYPDIELVISTGDRLVDLIREGIDCVVRAGRLDDSTLIARHLVDMPQVICASPDYLNKHGTPEQPEDLLSHYCVNFFSTSGGRNYPFELMVNGKKQDYFLKSWIAVNDAENYVLSALQGAGLIQVPHYHVANELKNGRLVEVLSEWESPKMSVSALYPQHRQLSPRVRVFVAWLSELYTGYFANFEYPQK	not soluble
MQDRCPHQDHRSIPTIMPDLEPDTVSALEAPEFAPAQFVRWFREVAPYVHAFRGKTFVVAFGGELVQAGALNVLVQDLSLLSALGIHLVLVHGSRPQVNEQLRLKGYTQQFGRGLAPTDPAALECAKEAAGEIRLDIEAAFSQGLPNTPMSHSHIRVLSGNFVTARPTGVVDGIDYKHTGQVRKIDVDALKFAIEQGSVVLLSPLGFSPTGDAFNLAMEDLATSVAVALRAEKLIFLSGEPGVLDGNGAVDTELARVDADALLARGELDEDTTYFLQHASLAVKRGVARAHLVPYALDGSVLLEIFTHDGVGTMVVEDTLDDLRAATLDDVGAILSLIEPLETDGTLVPRPRSAIERDVERFTVLEHDGVIYGCAALYPFPEDQMAEMACLIVHPEWQGSGEGEILLRHMESRARASGARRLFVLTTRTSHWFMKRGFVRGGVADLPRDKQNNYNRSRNSLVFIKKL	not soluble
DYKDDDDKVKLYKTNKYGTLYKSESASFTANTDIITRLTGPFRSMPQSGVLRKGLTIKYDEVMKQDGHVWVGYNTNSGKRVYLPVRTWNESTGELGPLWGTIK	soluble
